US9273290B2, “Method for producing phosphite dehydrogenase protein and use thereof” (priority 2011, dated 2016)
Values joined by “and” are separate entries in the source; they are usually repeats but may differ in a detail not shown here. Equal values may be shown once.

B1: Ralstonia sp. strain 4506 phosphite dehydrogenase, SEQ ID NO: 1, C-terminal His tag fusion (PtxD4506) (Ralstonia sp. 4506) (protein)
chain: MKPKVVLTHWVHPEIIELLSASADVIPNTTRETLPRSEVIARAKDADALMAFMPDSIDSAFLEECPKLRVIGAALKGYDNFDVNACTRHGVWLTIVPDLLTIPTAELTIGLLLGLTRHMLEGDRQIRSGHFQGWRPTLYGSGLTGKTLGIIGMGAVGRAIAQRLAGFEMNLLYCDPIPLNAEQEKAWHVQRVTLDELLEKCDYVVPMVPMAAETLHLIDATALAKMKTGSYLINACRGSVVDENAVIAALASGKLAGYAADVFEMEEWIRADRPQAIPKALLDNTAQTFFTPHLGSAVKEVRLEIERQAAMNIIQALAGEKPMGAINQPYPGVKAA
B2: Pseudomonas stutzeri WM88 phosphite dehydrogenase, wild type, SEQ ID NO: 3, C-terminal His tag fusion (PtxDPst) (Stutzerimonas stutzeri) (protein)
chain: MLPKLVITHRVHDEILQLLAPHCELMTNQTDSTLTREEILRRCRDAQAMMAFMPDRVDADFLQACPELRVVGCALKGFDNFDVDACTARGVWLTFVPDLLTVPTAELAIGLAVGLGRHLRAADAFVRSGEFQGWQPQFYGTGLDNATVGILGMGAIGLAMADRLQGWGATLQYHEAKALDTQTEQRLGLRQVACSELFASSDFILLALPLNADTQHLVNAELLALVRPGALLVNPCRGSVVDEAAVLAALERGQLGGYAADVFEMEDWARADRPRLIDPALLAHPNTLFTPHIGSAVRAVRLEIERCAAQNIIQVLAGARPINAANRLPKAEPAAC
notes: His tag (C); made in house; host or cells: E. coli Rosetta2 (DE3), plasmid pET21b

Assays:
[1] = substrate: NC(=O)c1ccc[n+]([C@@H]2O[C@H](COP(=O)([O-])OP(=O)(O)OC[C@H]3O[C@@H](n4cnc5c(N)ncnc54)[C@H](O)[C@@H]3O)[C@@H](O)[C@H]2O)c1; test: purified protein, by the assay type; conditions: 40° C.
[2] = substrate: NC(=O)c1ccc[n+]([C@@H]2O[C@H](COP(=O)([O-])OP(=O)(O)OC[C@H]3O[C@@H](n4cnc5c(N)ncnc54)[C@H](O)[C@@H]3O)[C@@H](O)[C@H]2O)c1; test: Reaction kinetic analysis: NADH production rate at varied NAD+ concentration; format: biochemical, Pseudomonas stutzeri WM88; conditions: 28° C.
Source text: By a well-known method, the base sequence of SEQ ID NO: 2 or a phosphite dehydrogenase gene (SEQ ID NO: 4) of P stutzeri WM88 was inserted into a plasmid pET21b (produced by Novagen) (an amino acid sequence of the protein encoded by the base sequence of SEQ ID NO: 4 is shown in SEQ ID NO: 3) to prepare (i) an expression vector of a fusion protein (see “PtxD4506” in FIG. 2) in which the C-terminal of the phosphite dehydrogenase protein of SEQ ID NO: 1 is labeled with a His tag or (ii) an expression vector of a fusion protein (see “PtxDPst” in FIG. 2) in which the C-terminal of the phosphite dehydrogenase protein of P stutzeri WM88 is labeled with a His tag.
The supernatant was supplied to a HisTrap column (produced by GE Healthcare) and, in accordance with protocols attached to the HisTrap column, a fusion protein in which a His tag was connected to the C-terminal of the phosphite dehydrogenase protein of SEQ ID NO: 1 was purified.
PtxD4506 and PtxDPst, which were purified with use of the HisTrap column in [3. Expression of Phosphite Dehydrogenase Protein By Using Escherichia Coli], were compared with each other in terms of reaction rate. The following description discusses how measurement of reaction rates was carried out.
Reaction rates of respective PtxD4506 and PtxDPst were calculated on the basis of (Reaction formula 1) shown in the section [Background Art].
Specifically, in the reaction system of (Reaction formula 1), a production rate of NADH was measured with use of 7.5 μg of each of the fusion proteins PtxD4506 and PtxDPst while a concentration of a substrate (NAD^+) was gradually changed from 0.5 μM to 200 μM. Note that a reaction temperature of the fusion protein PtxD4506 was 40° C., and a reaction temperature of the fusion protein PtxDPst was 28° C.
Based on the measured concentration of the substrate (NAD^+) and the measured production rate of NADH, values of Km (μM), Vmax (μmol/min/m), Kcat (min^−1), and Kcat/km were calculated in accordance with a well-known enzyme kinetic method (see, for example, “Fundamental Experiment Method of Proteins and Enzymes (2nd revised edition), Nankodo Co., Ltd.”). Note that the experiment was carried out three times, and values of Km, Vmax, Kcat, and Kcat/km were calculated in each of the experiments. Then, for each of Km, Vmax, Kcat, and Kcat/km, an average of the values calculated in the three experiments was obtained and defined as the value of each of Km, Vmax, Kcat, and Kcat/km. Kcat was calculated by the formula: Kcat=Vmax (μmol/min/mg)×(MW/10^3).

[3] = other: NAD+ 0.5 μM to 200 μM, individual experiments 1-3
[4] = other: NAD+, average of three experiments

Row | Protein | Km [1, 3] | Km [1, 4] | Vmax [1, 4] | kcat [1, 4] | Km [2, 3] | Km [2, 4] | Vmax [2, 4] | kcat [2, 4]
1 | B1 | 22.6 µM and 23.3 µM and 25.1 µM | 23.7 µM | 5.9 µmol/min/mg | 3.957 s⁻¹ | – | – | – | –
2 | B2 | – | – | – | – | 74.4 µM and 71.2 µM and 74.7 µM | 73.4 µM | 4.2 µmol/min/mg | 2.827 s⁻¹
